# Measured values reported in patent US20250382344A1, “Soluble GLP1/GIP/NPY2 Receptor Triple Agonists” (Boehringer Ingelheim International GmH, priority 2024, published 2025).
# Positions count from the first letter of the chain named. *1 amine or outer side, *2 acyl side, *3 side chain or, on linkers, in order; H or OH if unused. Where no end group is shown, it is not given here. Side-chain parts run from the residue outwards. [ ]: non-standard residue; d: D form. The star is where a group is joined. C18 diacid = O=C(O)CCCCCCCCCCCCCCCCC(=O)*; γGlu = O=C(O)[C@H](CCC(=O)[*:2])N[*:1]; εLys = N[C@@H](CCCCN[*:1])C(=O)[*:2]; Aib = CC(C)(N)C(=O)O
# T1: human GIP receptor (human, UniProt P48546 22-466)
# T1 sequence (looked up): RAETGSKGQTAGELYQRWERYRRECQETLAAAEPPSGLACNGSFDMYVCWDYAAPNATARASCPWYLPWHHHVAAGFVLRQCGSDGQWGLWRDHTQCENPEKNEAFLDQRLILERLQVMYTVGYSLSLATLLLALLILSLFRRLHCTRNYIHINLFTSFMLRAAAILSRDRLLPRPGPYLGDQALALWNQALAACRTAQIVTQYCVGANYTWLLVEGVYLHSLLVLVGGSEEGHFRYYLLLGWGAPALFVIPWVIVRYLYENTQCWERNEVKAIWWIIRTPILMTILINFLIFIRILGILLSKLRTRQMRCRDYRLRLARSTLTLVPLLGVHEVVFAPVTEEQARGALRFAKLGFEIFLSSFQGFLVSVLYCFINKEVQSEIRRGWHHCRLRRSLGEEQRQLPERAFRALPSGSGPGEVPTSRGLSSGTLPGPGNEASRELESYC
# T2: human neuropeptide Y2 receptor (human, UniProt P49146 1-381)
# T2 sequence (looked up): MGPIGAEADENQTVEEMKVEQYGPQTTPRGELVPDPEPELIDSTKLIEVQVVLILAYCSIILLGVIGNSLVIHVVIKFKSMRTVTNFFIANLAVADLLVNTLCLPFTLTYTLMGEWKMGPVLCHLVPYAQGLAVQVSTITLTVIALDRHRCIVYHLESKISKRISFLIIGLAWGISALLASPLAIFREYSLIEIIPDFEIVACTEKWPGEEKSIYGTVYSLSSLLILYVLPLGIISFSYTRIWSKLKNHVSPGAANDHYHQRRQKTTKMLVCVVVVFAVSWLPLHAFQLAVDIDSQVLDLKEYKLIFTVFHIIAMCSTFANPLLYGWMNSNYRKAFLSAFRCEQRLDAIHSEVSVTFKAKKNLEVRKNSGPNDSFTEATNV
# B1: Compound 173 (peptide)
# peptide: YXEGTFTSDYSIXLDKQAQXAFVRHLLNKXTRQRY
# modifications: Aib at positions 2, 13, 20 and 30; Lys 29 epsilon-amino group carries C18DA-gGlu-gGlu-gGlu-gGlu-gGlu-gGlu-eLys; C-terminal amide
# B2: Compound 176 (peptide)
# peptide: B1 peptide with D15E, L27I
# modifications: Aib at positions 2, 13, 20 and 30; Lys 29 epsilon-amino group carries C20DA-gGlu-gGlu-gGlu-gGlu-gGlu; C-terminal amide
# B3: Compound 172 (peptide)
# peptide: B1 peptide with D15E, L27I, X30W
# modifications: Aib at positions 2, 13 and 20; Lys 29 epsilon-amino group carries C18DA-gGlu-gGlu-gGlu-gGlu-gGlu-gGlu-eLys; C-terminal amide
# Columns and labels:
# Assay in all cases: cell-based or functional assay
# human GLP-1 receptor = human GLP-1 receptor (human, UniProt P43220 24-463)
# human GIP receptor = biological target: T1, human GIP receptor
# [1] = biological target: T2, human neuropeptide Y2 receptor
Binder,"EC50, CreLuc luciferase reporter assay, hGLP1R 0.5% hP (human GLP-1 receptor) [nM]","EC50, CreLuc luciferase reporter assay, hGIPR 0.5% hP (human GIP receptor) [nM]","EC50, CreLuc luciferase reporter assay, hGIPR 100% hP (human GIP receptor) [nM]","EC50, CreLuc luciferase reporter assay, hNPY2R 0.5% hP [1] [nM]","EC50, CreLuc luciferase reporter assay, hNPY2R 100% hP [1] [nM]"
B1,0.2,0.7,20.1,7.3,55.5
B2,,,,,457
B3,,1.7,19.8,52.7,136
Y[Aib]EGTFTSDYSI[Aib]LEKQAQ[Aib]AFVRHLINK([γGlu-εLys-γGlu-γGlu-γGlu-γGlu-γGlu-C18 diacid])[Aib]TRQRY-NH2 (also: TFA salt) [Compound 174],1,,,,
